In paper PMC3739937 (Molecular Microbiology, 2013):

T1: Colicin N (E. coli, UniProt P08083 1-387)
T1 sequence (looked up): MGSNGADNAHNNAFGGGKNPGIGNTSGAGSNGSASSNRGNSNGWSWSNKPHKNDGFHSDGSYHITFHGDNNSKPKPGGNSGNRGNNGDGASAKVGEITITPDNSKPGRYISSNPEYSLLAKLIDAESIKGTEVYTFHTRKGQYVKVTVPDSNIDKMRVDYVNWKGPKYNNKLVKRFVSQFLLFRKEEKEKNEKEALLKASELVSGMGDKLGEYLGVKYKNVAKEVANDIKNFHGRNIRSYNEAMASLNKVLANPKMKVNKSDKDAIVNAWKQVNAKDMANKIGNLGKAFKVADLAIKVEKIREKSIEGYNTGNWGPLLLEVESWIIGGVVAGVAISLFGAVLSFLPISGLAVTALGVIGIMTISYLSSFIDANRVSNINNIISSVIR

B1: OmpF (natural protein, E. coli, UniProt P02931 23-362, looked up)
chain: AEIYNKDGNKVDLYGKAVGLHYFSKGNGENSYGGNGDMTYARLGFKGETQINSDLTGYGQWEYNFQGNNSEGADAQTGNKTRLAFAGLKYADVGSFDYGRNYGVVYDALGYTDMLPEFGGDTAYSDDFFVGRVGGVATYRNSNFFGLVDGLNFAVQYLGKNERDTARRSNGDGVGGSISYEYEGFGIVGAYGAADRTNLQEAQPLGNGKKAEQWATGLKYDANNIYLAANYGETRNATPITNKFTNTSGFANKTQDVLLVAQYQFDFGLRPSIAYTKSKAKDVEGIGDVDLVNYFEVGATYYFNKNMSTYVDYIINQIDSDNKLGVGSDDTVAVGIVYQF
B2: ColN-T (isolated unstructured T-domain of colicin N) (domain or fragment, E. coli, UniProt P08083 1-90, looked up)
chain: MGSNGADNAHNNAFGGGKNPGIGNTSGAGSNGSASSNRGNSNGWSWSNKPHKNDGFHSDGSYHITFHGDNNSKPKPGGNSGNRGNNGDGA

Experiments:
Colicin N = biological target: T1, Colicin N; test: ITC
OmpF = biological target: B1; test: ITC

Row | binding result (Colicin N) | Kd (OmpF) [µM] | dH (OmpF) [kcal/mol] | stoichiometry N (OmpF) | Binder
1 | binds | – | – | – | B1
2 | – | 3.48 | -19.1 | 2.29 | B2
